Where a chain is given by its changes, count along the chain named. Numbers in names are those of the source. Where two headings read alike, the source gives them in different places.
B1: SPD-5(541-677) (domain or fragment, C. elegans, UniProt P91349 541-677, looked up)
chain: SQSHIPILHDMQQILDSSAMFLEGQHDVAVNVEQMQEKMSQIREALARLFERLKSSAALFEEILERMGSSDPNADKIKKMKLAFETSINDKLNVSAILEAAEKDLHNMSLNFSILEKSIVSQAAEASRRFTIAPDAE
B2: SPD-5(541-677) phosphorylated by PLK-1(CA) (domain or fragment, C. elegans, UniProt P91349 541-677, looked up)
chain: B1 chain
modifications: phosphorylated by PLK-1(CA) (verified by gel migration shift and MS); sites not printed for this fragment
B3: SPD-5(541-677) R592K (domain or fragment, C. elegans, UniProt P91349 541-677, looked up)
chain: B1 chain with R52K

How the values were obtained:
mass photometry [1] = molecular target: the molecule itself; assay: mass photometry
mass photometry [2] = molecular target: the molecule itself; assay: mass photometry; remark: listed apart in the source

Row | Protein | stoichiometry N (mass photometry [1]) | stoichiometry N (mass photometry [2])
1 | B1 | 2 | –
2 | B2 | – | 2
3 | B3 | 2 | –

Source: article doi:10.1101/2023.05.16.540868 (bioRxiv, 2023)
